Measured values taken from US20230357339A1, “Development of Cell-Permeable Truncated SOCS3 SH2 Domain (CP-SD) Recombinant Protein for Anti-Obesity Agent” (Cellivery Therapeutics, Inc., priority 2020, published 2023).

What was measured:
[1] = biological target: T1, Phosphorylated human leptin receptor peptide (QRQPFVK[pY] ATLISNSK), phosphorylated Y985 (Homo sapiens, UniProt P48357); experiment: Binding affinity to leptin receptor by isothermal titration calorimetry (ITC); conditions: leptin receptor peptide phosphorylated at Y985, storage buffer pH 4.0
T1 construct: Phosphorylated human leptin receptor peptide (QRQPFVK[pY] ATLISNSK); purchased Anygen (Gwangju, Korea); host or cells: synthetic peptide
Procedure: The binding affinity of cell-permeable truncated SOCS3 SH2 domain recombinant proteins to leptin receptor was analysed using isothermal titration calorimetry (ITC). Phosphorylated human leptin receptor peptide (QRQPFVK[pY] ATLISNSK) used in the experiment was acquired from Anygen (Gwangju, Korea). The binding affinity of aMTD524-P2-1-6 was measured using the following methods. Leptin receptor peptide was dissolved into DMSO and was diluted into storage buffer (50 mM sodium acetate, 50 mM NaCl, pH 4.0) to reach a final peptide concentration of 400 μM and final DMSO concentration of 0.5%. Using dialysis method, purified aMTD524-P2-1-6 was maintained at the identical batch storage buffer, and was diluted to reach the final concentration of 50 μM. Next, binding affinity was measured using ITC (Auto-ITC200).

[2] = Turbidity with thermal stress of 37° C. (absorbance at 350 nm); format: physicochemical; conditions: for stability (turbidity) in serum free medium: thermal stress of 37° C.
Procedure: The recombinant proteins were diluted in their storage buffer or serum free DMEM medium and added into wells of a clear 96 well plate. The plate was incubated at 37° C. and the absorbance of each well was measured at 350 nm every 30 minutes in a microplate reader (Synergy H1, BioTek).

[3] = system: leptin resistant mHypoA2/21-SOCS3 cells; experiment: Biological activity test: overcoming leptin resistance (STAT3 phosphorylation, western blot); format: cell-based; conditions: protein treated 1 hour, then 10 ng/mL mouse leptin 30 minutes
Procedure: To validate that cell-permeable truncated SOCS3 recombinant protein can overcome leptin resistance, the purified recombinant proteins were treated at leptin resistant cell line mHypoA2/21-SOCS3. mHypoA2/21-SOCS3 was produced by over-expressing SOCS3 at mouse hypothalamic neuron mHypoA2/21, and cultured using DMEM containing 10% FBS and 7 mg/mL geneticin. Cells were seeded at the concentration of 150000 cells/60 mm plate and on the following day the medium was replaced with 7 mg/mL geneticin containing serum free DMEM and starved the cells for the following 16 hours. Purified CP-SD recombinant proteins were diluted into 7 mg/mL geneticin containing serum free DMEM and treated for 1 hour, proteins were removed, and 10 ng/mL mouse leptin was treated for 30 minutes.
The cells were lysed in a lysis buffer (150 mM NaCl, 20 mM Tris, 1% triton-X-100, pH 7.5) containing protease inhibitor and […], incubated for 20 min at 4° C., and centrifuged at 13,000 rpm for 20 min at 4° C. Equal amounts of lysates were separated on 10% SDS-PAGE gels and transferred to a PVDF membrane. The membranes were blocked using TBST buffer 5% bovine serum albumin (BSA) and for western blot analysis incubated with the following antibodies diluted in TBST buffer 5% bovine serum albumin (BSA): anti-phospho-STAT3 (Cell Signaling Technology, USA), anti-STAT3 (Cell Signaling Technology, USA) and anti-myc (Cell Signaling Technology, USA), then HRP conjugated anti-rabbit secondary antibody (Cell Signaling Technology, USA) and anti-mouse secondary antibody (Cell Signaling Technology, USA). The protein bands were detected with ECL solution using luminescent image analyzer (ImageQuant LAS 500, GE Healthcare).

Molecule	Kd [1] [µM]	stability (turbidity) in storage buffer ([2]; thermal stress of 37° C. for 3 hours, storage buffer)	overcoming leptin resistance (STAT3 phosphorylation level) [3]	stability (turbidity) in serum free medium [2]
aMTD524-P2-1-6: SEQ ID No. 268; his tag-conjugated aMTD524-P2-1 (protein, His tag; Amino acid Sequence of aMTD524-P2-1-6) GSSHHHHHHSSGLVPRGSHMAVALIVVPALAPEAAAKLIRDSSDQRHFFTLSVKTQSGTKNLRIQ	8	stable	overcame leptin resistance	–
aMTD524-P2-1-24: SEQ ID No. 281; same regions as aMTD524-P2-1-23 with different linkers (protein, Amino acid Sequence of aMTD-P2-1-24, same regions as aMTD524-P2-1-23 with different linkers) AVALIVVPALAPEAAAKLIRDSSDQRHFFTLSVKTQSGTKNLRIQGGGGSGGGGSGGGGSGGGGSHHYMGSGSGSGSAYYIYSGGEKIPLVLSRPLSSN	–	–	overcame leptin resistance	instability
aMTD524-P2-1-21: SEQ ID No. 279; contains SH2 (T52-A62), (L69-Q96), (V120-M128) and (A164-N185) (protein, Amino acid Sequence of aMTD-P2-1-21) TGGEANLLLSAGSGSGSGSGSGSGSGSAVALIVVPALAPEAAAKLIRDSSDQRHFFTLSVKTQSGTKNLRIQGGGGSGGGGSGGGGSGGGGSVLKLVHHYMGSGSGSGSAYYIYSGGEKIPLVLSRPLSS	–	–	did not	–
aMTD524-P2-1-23: SEQ ID No. 280; contains SH2 (L69-Q96), SH2 (H125-M128) and SH2 (A164-N185) (protein, Amino acid Sequence of aMTD-P2-1-23) AVALIVVPALAPEAAAKLIRDSSDQRHFFTLSVKTQSGTKNLRIQEAAAKEAAAKEAAAKEAAAKHHYMGSGSGSGSAYYIYSGGEKIPLVLSRPLSSN	–	–	did not	–
aMTD524-36: SEQ ID No. 282; truncate from the SH2 domain containing aMTD and SH2 (L69-Q96) (protein, Amino acid Sequence of aMTD524-36) AVALIVVPALAPEAAAKGFYWSAVTGGEANLLLSAEPAGTFLIRDSSDQRHFFTLSVKTQSGTKNLRIQCEGGSFSLQSDPRSTQPVPRFDCVLKLVHHYMGSGSGSGSAYYIYSGGEKIPLVLSRPLSSN	–	–	did not overcome leptin resistance	–
aMTD524-37: SEQ ID No. 283; truncate from the SH2 domain containing aMTD and SH2 (L69-Q96) (protein, Amino acid Sequence of aMTD524-37) AVALIVVPALAPEAAAKLIRDSSDQRHFFTLSVKTQSGTKNLRIQCEGGSFSLQSDPRSTQPVPRFDCVLKLVHHYM	–	–	did not overcome leptin resistance	–
aMTD830-P2-1B: SEQ ID No. 255; aMTD830-replaced P2-1B, SH2 (L69-Q96) and SDB (protein, Amino acid Sequence of aMTD830-P2-1B, aMTD830-replaced P2-1B, SH2 (L69-Q96) and SDB) IALVAAPVALVPEAAAKLIRDSSDQRHFFTLSVKTQSGTKNLRIQEAAAKEAAAKEAAAKMAEQSDKDVKYYTLEEIQKHKDSKSTWLILHHKVYDLTKFLEEHPGGEEVLGEQAGGDATENFEDVGHSTDARELSKTYIIGELHPDDRSKIAKPSETL	–	–	overcame leptin resistance	stable
aMTD830-P2-1-24B: SEQ ID No. 261; aMTD830-replaced P2-1-24B (protein, Amino acid Sequence of aMTD830-P2-1-24B, aMTD830-replaced P2-1-24B) IALVAAPVALVPEAAAKLIRDSSDQRHFFTLSVKTQSGTKNLRIQGGGGSGGGGSGGGGSGGGGSHHYMGSGSGSGSAYYIYSGGEKIPLVLSRPLSSNEAAAKEAAAKEAAAKMAEQSDKDVKYYTLEEIQKHKDSKSTWLILHHKVYDLTKFLEEHPGGEEVLGEQAGGDATENFEDVGHSTDARELSKTYIIGELHPDDRSKIAKPSETL	–	–	overcame leptin resistance	stable
aMTD830-P2-1-32B: SEQ ID No. 266; aMTD830-replaced P2-1-32B (protein, Amino acid Sequence of aMTD830-P2-1-32B, aMTD830-replaced P2-1-32B) IALVAAPVALVPEAAAKLIRDSSDQRHFFTLSVKTQSGTKNLRIQGGGGSGGGGSGGGGSGGGGSAYYIYSGGEKIPLVLSRPLSSNEAAAKEAAAKEAAAKMAEQSDKDVKYYTLEEIQKHKDSKSTWLILHHKVYDLTKFLEEHPGGEEVLGEQAGGDATENFEDVGHSTDARELSKTYIIGELHPDDRSKIAKPSETL	–	–	overcame leptin resistance	stable
